Patent US20160058880A1 (LIFE SCIENCES RESEARCH PARTNERS VZW, published 2016)
Numbered stars: 1 amine (or outer) side, 2 acyl side, 3 side chain; on linkers, the order of the positions; unused ones are H or OH. Square brackets hold non-standard residues; d marks the D form. * marks the point of attachment. Doxorubicin(3'-N) = COc1cccc2c1C(=O)c1c(O)c3c(c(O)c1C2=O)C[C@@](O)(C(=O)CO)C[C@@H]3O[C@H]1C[C@H](N*)[C@H](O)[C@H](C)O1; Phosphonoacetyl = O=C(CP(=O)(O)O)*; Suc = O=C(CCC(=O)[*:2])[*:1]; βAla = NCCC(=O)O

How the values were obtained:
[1] = biological target: TOP (recombinant human thimet oligopeptidase, R&D systems, Ref 3439-ZN) (human, UniProt P52888 1-689, limits assumed); test: cell-based or functional assay
[2] = biological target: CD10 (recombinant human neprilysin, R&D systems, Ref 1182-ZN) (human, UniProt P08473 53-750); test: cell-based or functional assay
Chain of CD10 (recombinant human neprilysin, R&D systems, Ref 1182-ZN) (P08473 53-750 limits assumed): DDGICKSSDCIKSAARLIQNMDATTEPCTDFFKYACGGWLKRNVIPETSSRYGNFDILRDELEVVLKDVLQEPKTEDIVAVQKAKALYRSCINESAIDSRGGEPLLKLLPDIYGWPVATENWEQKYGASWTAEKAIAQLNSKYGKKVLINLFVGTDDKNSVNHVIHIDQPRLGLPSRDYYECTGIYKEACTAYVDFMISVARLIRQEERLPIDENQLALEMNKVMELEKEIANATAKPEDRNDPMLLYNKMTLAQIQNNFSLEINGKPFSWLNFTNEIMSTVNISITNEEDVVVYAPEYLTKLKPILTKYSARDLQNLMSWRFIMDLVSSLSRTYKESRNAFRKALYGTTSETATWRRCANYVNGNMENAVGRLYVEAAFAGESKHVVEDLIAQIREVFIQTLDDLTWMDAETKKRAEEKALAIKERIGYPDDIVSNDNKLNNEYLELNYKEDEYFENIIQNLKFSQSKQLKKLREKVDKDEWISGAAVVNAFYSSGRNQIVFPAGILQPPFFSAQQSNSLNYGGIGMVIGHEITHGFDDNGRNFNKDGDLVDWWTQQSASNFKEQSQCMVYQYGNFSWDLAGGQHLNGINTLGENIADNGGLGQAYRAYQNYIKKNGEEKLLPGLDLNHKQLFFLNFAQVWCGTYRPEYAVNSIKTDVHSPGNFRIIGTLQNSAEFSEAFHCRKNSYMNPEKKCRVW

Chain of TOP (recombinant human thimet oligopeptidase, R&D systems, Ref 3439-ZN) (P52888 whole entry): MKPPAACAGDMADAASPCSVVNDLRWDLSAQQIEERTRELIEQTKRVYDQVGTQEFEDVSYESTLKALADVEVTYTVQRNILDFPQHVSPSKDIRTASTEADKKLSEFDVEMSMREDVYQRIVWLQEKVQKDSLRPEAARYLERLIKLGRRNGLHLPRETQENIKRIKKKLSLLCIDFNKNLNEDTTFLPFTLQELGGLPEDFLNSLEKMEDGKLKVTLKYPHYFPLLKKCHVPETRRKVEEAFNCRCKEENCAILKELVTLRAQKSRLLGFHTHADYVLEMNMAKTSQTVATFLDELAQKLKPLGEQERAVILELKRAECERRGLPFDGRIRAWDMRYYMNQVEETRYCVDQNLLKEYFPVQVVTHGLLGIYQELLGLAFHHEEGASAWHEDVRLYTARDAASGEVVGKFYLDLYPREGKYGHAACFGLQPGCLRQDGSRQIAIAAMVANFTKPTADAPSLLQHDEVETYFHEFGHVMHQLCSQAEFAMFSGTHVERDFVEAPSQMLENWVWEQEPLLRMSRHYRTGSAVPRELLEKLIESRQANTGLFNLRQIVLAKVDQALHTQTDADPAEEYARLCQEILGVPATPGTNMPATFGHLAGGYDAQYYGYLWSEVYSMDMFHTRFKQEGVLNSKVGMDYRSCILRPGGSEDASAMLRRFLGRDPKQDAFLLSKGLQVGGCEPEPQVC

Binder | % Metabolites released after 3 h with TOP 5 nM (GP-Dox) [1] [%] | % Metabolites released after 3 h with CD10 10 nM [2] [%] | % Metabolites released after 3 h with TOP 5 nM [1] [%]
Phosphonoacetyl-TSGP-{Doxorubicin(3'-N)} (SMILES COc1cccc2c1C(=O)c1c(O)c3c(c(O)c1C2=O)C[C@@](O)(C(=O)CO)C[C@@H]3O[C@H]1C[C@H](NC(=O)[C@@H]2CCCN2C(=O)CNC(=O)[C@H](CO)NC(=O)[C@@H](NC(=O)CP(=O)(O)O)[C@@H](C)O)[C@H](O)[C@H](C)O1) [PhAc-TSGP-doxorubicin] | 38 | 0 | 
Phosphonoacetyl-ALPF-{Doxorubicin(3'-N)} (SMILES COc1cccc2c1C(=O)c1c(O)c3c(c(O)c1C2=O)C[C@@](O)(C(=O)CO)C[C@@H]3O[C@H]1C[C@H](NC(=O)[C@H](Cc2ccccc2)NC(=O)[C@@H]2CCCN2C(=O)[C@H](CC(C)C)NC(=O)[C@H](C)NC(=O)CP(=O)(O)O)[C@H](O)[C@H](C)O1) [PhAc-ALPF-doxorubicin] |  | 0 | 
Phosphonoacetyl-AIGP-{Doxorubicin(3'-N)} (SMILES CC[C@H](C)[C@H](NC(=O)[C@H](C)NC(=O)CP(=O)(O)O)C(=O)NCC(=O)N1CCC[C@H]1C(=O)N[C@H]1C[C@H](O[C@H]2C[C@](O)(C(=O)CO)Cc3c(O)c4c(c(O)c32)C(=O)c2c(OC)cccc2C4=O)O[C@@H](C)[C@H]1O) [PhAc-AIGP-doxorubicin] | < 5 |  | 
Phosphonoacetyl-KLGP-{Doxorubicin(3'-N)} (SMILES COc1cccc2c1C(=O)c1c(O)c3c(c(O)c1C2=O)C[C@@](O)(C(=O)CO)C[C@@H]3O[C@H]1C[C@H](NC(=O)[C@@H]2CCCN2C(=O)CNC(=O)[C@H](CC(C)C)NC(=O)[C@H](CCCCN)NC(=O)CP(=O)(O)O)[C@H](O)[C@H](C)O1) [PhAc-KLGP-doxorubicin] | 31 |  | 
Phosphonoacetyl-DLGP-{Doxorubicin(3'-N)} (SMILES COc1cccc2c1C(=O)c1c(O)c3c(c(O)c1C2=O)C[C@@](O)(C(=O)CO)C[C@@H]3O[C@H]1C[C@H](NC(=O)[C@@H]2CCCN2C(=O)CNC(=O)[C@H](CC(C)C)NC(=O)[C@H](CC(=O)O)NC(=O)CP(=O)(O)O)[C@H](O)[C@H](C)O1) [PhAc-DLGP-doxorubicin] |  | 0 | 0
Phosphonoacetyl-ALGP-{Doxorubicin(3'-N)} (SMILES COc1cccc2c1C(=O)c1c(O)c3c(c(O)c1C2=O)C[C@@](O)(C(=O)CO)C[C@@H]3O[C@H]1C[C@H](NC(=O)[C@@H]2CCCN2C(=O)CNC(=O)[C@H](CC(C)C)NC(=O)[C@H](C)NC(=O)CP(=O)(O)O)[C@H](O)[C@H](C)O1) [PhAc-ALGP-doxorubicin] | 72 |  | 
Phosphonoacetyl-GPGP-{Doxorubicin(3'-N)} (SMILES COc1cccc2c1C(=O)c1c(O)c3c(c(O)c1C2=O)C[C@@](O)(C(=O)CO)C[C@@H]3O[C@H]1C[C@H](NC(=O)[C@@H]2CCCN2C(=O)CNC(=O)[C@@H]2CCCN2C(=O)CNC(=O)CP(=O)(O)O)[C@H](O)[C@H](C)O1) [PhAc-GPGP-doxorubicin] |  | 0 | 0
Suc-[βAla]LPF-doxorubicin [Succinyl-βALPF-doxorubicin] |  |  | 0
